System: Escherichia coli TOP10
Test: shrunken log2 fold change of peptide-encoding DNA abundance (4.5 h post-induction vs induction); higher = less antimicrobial activity (less host growth inhibition)
Conditions: time post-induction: 4.5 h; library: site-saturation at positions 5, 18, 19, 20
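Also: peptides expressed intracellularly from a pBAD plasmid library in pooled LB shake-flask culture, induced with 0.3% L-arabinose, DNA abundance read by NGS, three biological replicates, DESeq2 with apeglm shrinkage.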

Sequence	shrunken log2 fold change
RRIRSRPPRLPRPRPRPNMNPRP	-0.573
RRIRARPPRLPRPRPRPFQHPRP	-0.162
RRIRNRPPRLPRPRPRPINYPRP	-0.262
RRIRNRPPRLPRPRPRPYLLPRP	-0.27
RRIRHRPPRLPRPRPRPLDYPRP	-0.0824
RRIRFRPPRLPRPRPRPWCRPRP	-0.172
RRIRVRPPRLPRPRPRPRVDPRP	0.455
RRIRIRPPRLPRPRPRPAIEPRP	-0.0797
RRIRFRPPRLPRPRPRPTMWPRP	0.0084
RRIRLRPPRLPRPRPRPHAIPRP	-0.346
RRIRDRPPRLPRPRPRPVMCPRP	0.156
RRIRARPPRLPRPRPRPANDPRP	0.0448
RRIRPRPPRLPRPRPRPWRLPRP	0.0836
RRIRWRPPRLPRPRPRPRGYPRP	0.209
RRIRTRPPRLPRPRPRPLYGPRP	0.0411
RRIRRRPPRLPRPRPRPWMWPRP	0.0918
RRIRDRPPRLPRPRPRPVYPPRP	-0.089
RRIRARPPRLPRPRPRPLPMPRP	0.306
RRIRARPPRLPRPRPRPVGPPRP	0.124
RRIRERPPRLPRPRPRPVRFPRP	0.431
RRIRERPPRLPRPRPRPWVDPRP	-0.665
RRIRSRPPRLPRPRPRPQKAPRP	0.091
RRIRVRPPRLPRPRPRPHQKPRP	0.375
RRIRFRPPRLPRPRPRPEMYPRP	-0.00146
RRIRWRPPRLPRPRPRPFWYPRP	-0.214

Sequence	shrunken log2 fold change
RRIRMRPPRLPRPRPRPTEEPRP	-0.000967
RRIRARPPRLPRPRPRPCDMPRP	0.208
RRIRQRPPRLPRPRPRPKFDPRP	-0.0817
RRIRNRPPRLPRPRPRPDSVPRP	0.119
RRIRWRPPRLPRPRPRPMWSPRP	0.266
RRIRGRPPRLPRPRPRPQQYPRP	-0.107
RRIRFRPPRLPRPRPRPRDMPRP	-0.128
RRIRARPPRLPRPRPRPFDRPRP	0.0972
RRIRSRPPRLPRPRPRPRTVPRP	0.106
RRIRDRPPRLPRPRPRPRLIPRP	-0.189
RRIRNRPPRLPRPRPRPCATPRP	-0.0524
RRIRARPPRLPRPRPRPHCIPRP	0.102
RRIRHRPPRLPRPRPRPWENPRP	0.0621
RRIRQRPPRLPRPRPRPYFNPRP	-0.82
RRIRYRPPRLPRPRPRPQMGPRP	0.0669
RRIRKRPPRLPRPRPRPPFMPRP	0.517
RRIRWRPPRLPRPRPRPFALPRP	-0.129
RRIRARPPRLPRPRPRPVCTPRP	0.434
RRIRDRPPRLPRPRPRPVHYPRP	0.0175
RRIRSRPPRLPRPRPRPKVSPRP	0.21
RRIRRRPPRLPRPRPRPYGHPRP	-0.198
RRIRVRPPRLPRPRPRPDGKPRP	-0.0236
RRIRPRPPRLPRPRPRPGMCPRP	-0.0873
RRIRSRPPRLPRPRPRPNHTPRP	-0.444
RRIRFRPPRLPRPRPRPEYTPRP	-0.0548

Sequence	shrunken log2 fold change
RRIRMRPPRLPRPRPRPCWKPRP	-0.0216
RRIRARPPRLPRPRPRPKYAPRP	0.354
RRIRERPPRLPRPRPRPEHHPRP	-0.543
RRIRDRPPRLPRPRPRPPMYPRP	-0.405
RRIRHRPPRLPRPRPRPGNWPRP	-0.0354
RRIRSRPPRLPRPRPRPCNNPRP	-0.332
RRIRGRPPRLPRPRPRPAKCPRP	-0.0198
RRIRQRPPRLPRPRPRPPVTPRP	0.199
RRIRTRPPRLPRPRPRPVFSPRP	-0.648
RRIRFRPPRLPRPRPRPWCTPRP	-0.288
RRIRCRPPRLPRPRPRPLTYPRP	-0.19
RRIRNRPPRLPRPRPRPVFAPRP	-0.0312
RRIRFRPPRLPRPRPRPLYMPRP	-0.921
RRIRRRPPRLPRPRPRPSWRPRP	0.355
RRIRFRPPRLPRPRPRPVVWPRP	0.408
RRIRMRPPRLPRPRPRPYAAPRP	0.364
RRIRRRPPRLPRPRPRPNTAPRP	0.0812
RRIRIRPPRLPRPRPRPGCSPRP	-0.391
RRIRFRPPRLPRPRPRPYSGPRP	-0.293
RRIRQRPPRLPRPRPRPDQFPRP	0.133
RRIRNRPPRLPRPRPRPELGPRP	0.193
RRIRPRPPRLPRPRPRPQSSPRP	-0.0675
RRIRDRPPRLPRPRPRPLWVPRP	-0.0158
RRIRPRPPRLPRPRPRPHVCPRP	0.171
RRIRPRPPRLPRPRPRPNNCPRP	-0.0794

Sequence	shrunken log2 fold change
RRIRARPPRLPRPRPRPTNSPRP	0.165
RRIRYRPPRLPRPRPRPGTHPRP	-0.678
RRIRIRPPRLPRPRPRPRRRPRP	0.169
RRIRCRPPRLPRPRPRPETMPRP	-0.0663
RRIRWRPPRLPRPRPRPKKGPRP	0.22
RRIRHRPPRLPRPRPRPNRYPRP	-0.398
RRIRFRPPRLPRPRPRPYWRPRP	-0.0769
RRIRHRPPRLPRPRPRPLKRPRP	-0.00686
RRIRSRPPRLPRPRPRPQFDPRP	-0.00423
RRIRGRPPRLPRPRPRPNGGPRP	0.0238
RRIRTRPPRLPRPRPRPTPRPRP	0.674
RRIRSRPPRLPRPRPRPSLSPRP	-0.0859
RRIRLRPPRLPRPRPRPVWPPRP	0.422
RRIRHRPPRLPRPRPRPPHWPRP	0.375
RRIRKRPPRLPRPRPRPLLHPRP	0.108
RRIRSRPPRLPRPRPRPPMVPRP	0.131
RRIRLRPPRLPRPRPRPVRFPRP	1.26
RRIRKRPPRLPRPRPRPTWLPRP	0.638
RRIRWRPPRLPRPRPRPRCHPRP	0.33
RRIRRRPPRLPRPRPRPIWLPRP	0.0778
RRIRFRPPRLPRPRPRPEGHPRP	0.0933
RRIRHRPPRLPRPRPRPQSPPRP	0.0863
RRIRDRPPRLPRPRPRPMCHPRP	0.216
RRIRPRPPRLPRPRPRPGMRPRP	0.852
RRIRRRPPRLPRPRPRPARIPRP	0.0165

Sequence	shrunken log2 fold change
RRIRVRPPRLPRPRPRPDTFPRP	-0.0845
RRIRSRPPRLPRPRPRPHTCPRP	-0.215
RRIRRRPPRLPRPRPRPDKLPRP	-0.115
RRIRWRPPRLPRPRPRPCCNPRP	-0.0508
RRIRCRPPRLPRPRPRPSVMPRP	0.445
RRIRFRPPRLPRPRPRPRGYPRP	-0.25
RRIRTRPPRLPRPRPRPSLCPRP	-0.0129
RRIRMRPPRLPRPRPRPTAWPRP	1.4
RRIRRRPPRLPRPRPRPHTQPRP	0.573
RRIRYRPPRLPRPRPRPFHNPRP	-0.451
RRIRTRPPRLPRPRPRPMHRPRP	-0.142
RRIRIRPPRLPRPRPRPCHHPRP	0.0314
RRIRPRPPRLPRPRPRPTHAPRP	0.131
RRIRPRPPRLPRPRPRPPMWPRP	0.412
RRIRPRPPRLPRPRPRPWIVPRP	-0.197
RRIRERPPRLPRPRPRPYSRPRP	-0.195
RRIRLRPPRLPRPRPRPPKGPRP	0.306
RRIRRRPPRLPRPRPRPWNLPRP	-0.269
RRIRARPPRLPRPRPRPWAPPRP	0.0486
RRIRKRPPRLPRPRPRPIPWPRP	0.466
RRIRHRPPRLPRPRPRPRGHPRP	-0.103
RRIRYRPPRLPRPRPRPGSEPRP	-0.202
RRIRLRPPRLPRPRPRPMWIPRP	-0.199
RRIRLRPPRLPRPRPRPQEFPRP	0.00998
RRIRSRPPRLPRPRPRPSGHPRP	-0.433

Sequence	shrunken log2 fold change
RRIRVRPPRLPRPRPRPTNKPRP	-0.254
RRIRVRPPRLPRPRPRPYLDPRP	0.0545
RRIRDRPPRLPRPRPRPKKRPRP	0.403
RRIRQRPPRLPRPRPRPMCIPRP	0.0119
RRIRQRPPRLPRPRPRPKCIPRP	-0.0337
RRIRHRPPRLPRPRPRPEHTPRP	-0.328
RRIRSRPPRLPRPRPRPKAYPRP	-0.0451
RRIRDRPPRLPRPRPRPTSQPRP	0.495
RRIRLRPPRLPRPRPRPTVEPRP	0.114
RRIRRRPPRLPRPRPRPDPAPRP	1.18
RRIRCRPPRLPRPRPRPHRTPRP	-0.209
RRIRERPPRLPRPRPRPYDCPRP	-0.0948
RRIRMRPPRLPRPRPRPMYQPRP	-0.0563
RRIRKRPPRLPRPRPRPFVSPRP	-0.176
RRIRARPPRLPRPRPRPQFIPRP	-0.382
RRIRFRPPRLPRPRPRPYGDPRP	-0.0819
RRIRHRPPRLPRPRPRPNKSPRP	-0.252
RRIRKRPPRLPRPRPRPHWEPRP	-0.102
RRIRHRPPRLPRPRPRPMLLPRP	0.0408
RRIRNRPPRLPRPRPRPTGWPRP	0.355
RRIRNRPPRLPRPRPRPEHYPRP	-0.38
RRIRWRPPRLPRPRPRPHFTPRP	-0.306
RRIRERPPRLPRPRPRPSPFPRP	-0.972
RRIRERPPRLPRPRPRPESPPRP	0.0699
RRIRIRPPRLPRPRPRPWQQPRP	0.0529

From the supplement of paper PMC9112550, “Optimization of the antimicrobial peptide Bac7 by deep mutational scanning” (BMC Biology, 2022)
